Assay [1] has as its target murine CTLA4 (murine) (UniProt P09793). The experiment in a line: ELISA on coated CTLA4, source Mouse (row of 8D2).
The target is the same in assay [2]. The assay is described as follows: ELISA, coat murine CTLA4 0.5 ug/ml; antibody 1 ug/ml.
Assay [3] has the same target. The assay is described as follows: ELISA on coated CTLA4, source Mouse (row of 8D2(Re)).
For assay [4] the target is unchanged. The experiment in a line: ELISA on coated CTLA4, source Mouse (row of 8D2H1L1).
Assay [5] concerns the target monkey CTLA4-hFc (monkey). The assay is described as follows: ELISA on coated CTLA4, source Monkey (row of 8D2H2L2).
Assay [6] deals with monkey CTLA4-hFc (monkey). The assay is described as follows: ELISA on coated CTLA4, source Monkey (row of 8D2H3L3).
Assay [7] has as its target murine CTLA4 (murine) (UniProt P09793). The assay is described as follows: ELISA, coat murine CTLA4 0.5 ug/ml; antibody 0.1 ug/ml.
Assay [8] has the same target. The experiment in a line: ELISA, coat murine CTLA4 0.5 ug/ml; antibody 0.3 ug/ml.
Assay [9] shares this target. The assay is described as follows: ELISA, coat murine CTLA4 0.5 ug/ml; antibody 0.01 ug/ml.
Assay [10] has the same target. The experiment in a line: ELISA, coat murine CTLA4 0.5 ug/ml; antibody 0.03 ug/ml.
Assay [11] shares this target. The assay is described as follows: ELISA, coat murine CTLA4 0.5 ug/ml; antibody 0.001 ug/ml.
Assay [12] has the same target. The experiment in a line: ELISA, coat murine CTLA4 0.5 ug/ml; antibody 0.003 ug/ml.
For assay [13], the target named is monkey CTLA4-hFc (monkey). The experiment in a line: ELISA, coat monkey CTLA4-hFc 0.25 ug/ml; antibody 1 ug/ml.
Assay [14] deals with monkey CTLA4-hFc (monkey). The experiment in a line: ELISA, coat monkey CTLA4-hFc 0.25 ug/ml; antibody 0 (blank).
The target of assay [15] is murine CTLA4 (murine) (UniProt P09793). The assay is described as follows: ELISA, coat murine CTLA4 0.5 ug/ml; antibody 0 ug/ml (blank).
Assay [16] has as its target monkey CTLA4-hFc (monkey). The assay is described as follows: ELISA, coat monkey CTLA4-hFc 0.25 ug/ml; antibody 1:3 (start 1 ug/ml).
Assay [17] addresses monkey CTLA4-hFc (monkey). The experiment in a line: ELISA, coat monkey CTLA4-hFc 0.25 ug/ml; antibody 1:9 (start 1 ug/ml).
The target of assay [18] is monkey CTLA4-hFc (monkey). The assay is described as follows: ELISA, coat monkey CTLA4-hFc 0.25 ug/ml; antibody 1:27 (start 1 ug/ml).
In assay [19] the target is monkey CTLA4-hFc (monkey). The assay is described as follows: ELISA, coat monkey CTLA4-hFc 0.25 ug/ml; antibody 1:81 (start 1 ug/ml).
The target in assay [20] is monkey CTLA4-hFc (monkey). The experiment in a line: ELISA, coat monkey CTLA4-hFc 0.25 ug/ml; antibody 1:243 (start 1 ug/ml).
The target of assay [21] is monkey CTLA4-hFc (monkey). The experiment in a line: ELISA, coat monkey CTLA4-hFc 0.25 ug/ml; antibody 1:729 (start 1 ug/ml).
The target of assay [22] is CTLA4 antigen on the surface of 293F-CTLA4 host cells (UniProt P16410). The experiment in a line: flow cytometry, mean fluorescence intensity with the isotype control (unlabeled 293F bar: 3.62).

From patent US20260166139A1 come the findings set out here.

“And” between values parts separate entries of the source, which are not always exact repeats. Equal entries are not always repeated.

Chain of CTLA4 antigen on the surface of 293F-CTLA4 host cells (P16410 36-223 limits assumed): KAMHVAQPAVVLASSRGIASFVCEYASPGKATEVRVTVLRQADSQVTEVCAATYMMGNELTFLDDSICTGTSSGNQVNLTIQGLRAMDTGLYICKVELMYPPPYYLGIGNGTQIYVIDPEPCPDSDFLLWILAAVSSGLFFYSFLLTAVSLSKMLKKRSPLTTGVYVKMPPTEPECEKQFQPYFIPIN

Regarding control antibody 10D1, the concentration for a half-maximal effect (EC50) in assay [1] was 0.062 nM; in assay [3], 0.062 nM; in assay [4], 0.062 nM; in assay [5], 0.258 nM; in assay [6] it was 0.258 nM. Further, the absorbance at 450 nm was 3 and 2.98 in assay [2]; 2.43 and 2.54 in assay [7]; 2.85 and 2.9 in assay [8]; 0.673 and 0.794 in assay [9]; 1.51 in assay [10]; 0.136 and 0.142 in assay [11]. Also, the absorbance at 450 nm in assay [12] was 0.292 and 0.328; in [13], 1.79 and 1.85; in [14] it was 0.049; in assay [15], 0.046 and 0.05; in assay [16] it was 1.34; in assay [17], 0.845 and 0.868. In addition, the absorbance at 450 nm is 0.429 and 0.402 in [18]; 0.19 and 0.191 in assay [19]; 0.104 and 0.108 in assay [20]; 0.063 and 0.067 in assay [21].
As for isotype control (antibody), in assay [22], the MFI stood at 4.95.
